Laboratory results taken from article PMC12810539, “EGFR-targeted gadolinium contrast agents for enhanced molecular magnetic resonance imaging of tumors” (The Journal of Biological Chemistry, 2025).

Key:
[1] = Longitudinal and transverse relaxivity at 3T MRI; format: physicochemical; settings: in water, 37 °C, slope of 1/T1 versus Gd concentration (0-0.5 mM)
Procedure: The EBP-Gd-DO3A and EBP-(Gd-DO3A)3 conjugates were confirmed by matrix-assisted laser desorption/ionization time-of-flight (MALDI-TOF) mass spectrometry (Applied Biosystems) in a linear mode with 2,5-dihydroxybenzoic acid (2,5-DHB) as the matrix. The Gd content in the conjugates was determined by ICP-MS (Thermo Fisher Scientific) ([31]). […] Serial dilutions of EBP-Gd-DO3A, EBP-(Gd-DO3A)3, and Gadovist were prepared in water at Gd concentrations of 0.5, 0.25, 0.125, 0.0625, 0.03125, and 0 mM. The relaxivity measurements were performed on a 3T MRI scanner (Trio, Siemens). T1 was measured using an inversion recovery method with a variable inversion time ranging from 50 to 1750 ms. T2 was measured using a Carr-Purcell-Meiboom-Gill sequence with 500 echoes collected. The relaxivities (r1 and r2) of the agents were calculated from the slopes of the plots of 1/T1 and 1/T2 versus the Gd concentrations.

[2] = tested on: MDA-MB-231 and U138 MG tumor xenografts; test: In vivo MR imaging of tumor xenografts; design: species or system SCID mice; settings: i.v. 50 μM Gd/kg, 7 T T1-weighted MRI, n = 6; conjugates in MDA-MB-231 xenografts; imaged up to 4 h
Procedure: The 6- to 8-week-old male non-obese diabetic (NOD)/severe-combined immunodeficient (SCID) mice were used to establish MDA-MB-231 (EGFR-overexpressing) and U138 MG (non-EGFR-overexpressing) xenograft models ([35]). The mice were obtained from the Experimental Animal Center of Tongji Medical College, Huazhong University of Science and Technology, and all the experimental procedures involving animals were further approved by the Animal Care and Use Committee of Huazhong University of Science and Technology. The mice were housed separately in polycarbonate cages and provided with food and water. Tumors were grown under the skin by s.c. injection of 1 × 10^6-3 × 10^6 cells. The mice were randomized into groups for the biodistribution assay and MR imaging in vivo when the xenografts reached 5 to 7 mm in diameter. […]
Tumor-bearing SCID mice were randomly grouped and scanned with a Bruker Biospec 7 T MRI scanner (Bruker Corp.) with a volume radio frequency (RF) coil. […] The parameters of the 2D T1-weighted gradient echo sequence were TR/TE = 151.2/1.9 ms, FOV = 3.0 cm, slice thickness = 1.2 mm, slice number = 20, average = 1, flip angle = 80°, and matrix = 128 × 128 ([28], [37]).The CNR were calculated with standard methods (CNR = [Stumor-Sbackground]/SDnoise).

[3] = In vivo biodistribution: plasma, kidney, liver, heart (ICP-MS); design: species or system SCID mice; settings: for Gd content in the kidneys / plasma Gd level over time: tumor-bearing SCID mice, ICP-MS; for Gd content in the kidneys: mean ± SD, 6 animals per group; for plasma Gd level over time: 0.25-48 h
Procedure: (§1) The 6- to 8-week-old male non-obese diabetic (NOD)/severe-combined immunodeficient (SCID) mice were used to establish MDA-MB-231 (EGFR-overexpressing) and U138 MG (non-EGFR-overexpressing) xenograft models ([35]). The mice were obtained from the Experimental Animal Center of Tongji Medical College, Huazhong University of Science and Technology, and all the experimental procedures involving animals were further approved by the Animal Care and Use Committee of Huazhong University of Science and Technology. The mice were housed separately in polycarbonate cages and provided with food and water. Tumors were grown under the skin by s.c. injection of 1 × 10^6-3 × 10^6 cells. The mice were randomized into groups for the biodistribution assay and MR imaging in vivo when the xenografts reached 5 to 7 mm in diameter. All procedures were approved by the Institutional Animal Care and Use Committee of Huazhong University of Science and Technology (approval no.270193).
(§2) The tumor-bearing SCID mice were randomly divided into groups, with 6 animals in each group, an injected via the tail vein with 50 μM Gd/kg EBP-Gd-DO3A, EBP-(Gd-DO3A)3, or Gadovist. At the selected time points (0.25, 0.5, 1, 2, 4, 8, 24, and 48 h) after injection, blood was collected and centrifuged to separate the plasma. Then, organ and tissue samples, including the kidneys, liver, heart, and tumor, were collected and weighed. The tissue samples were liquefied for 1 week and then transferred into centrifuge tubes and centrifuged at 14,000 rpm for 5 min. The resulting supernatants were diluted tenfold with deionized water and centrifuged again under the same conditions. The Gd concentration in the samples was measured by ICP-MS ([36]).

[4] = tested on: U138 MG tumor xenografts; test: In vivo biodistribution: tumor Gd content (ICP-MS); settings: SCID mice, mean ± SD
Procedure: as §1, §2

[5] = tested on: MDA-MB-231 tumor xenografts; test: In vivo biodistribution: tumor Gd content (ICP-MS); settings: SCID mice, mean ± SD; for Gd content in the MDA-MB-231 tumor tissues (peak): 4 h after single i.v. 50 μM Gd/kg
Procedure: as §1, §2

[6] = 0.5 h after single i.v. 50 μM Gd/kg
[7] = 2 h after single i.v. 50 μM Gd/kg
[8] = 24 h after single i.v. 50 μM Gd/kg

Molecule | longitudinal relaxivity (r1) [1] | time that tumor contrast enhancement persisted after injection [2] | Gd content in the kidneys [3, 6] | Gd content in the kidneys [3, 7] | Gd content in the kidneys [3, 8] | Gd retention in the liver and heart ([3]; single i.v. 50 μM Gd/kg, compared with EBP-Gd-DO3A and EBP-(Gd-DO3A)3, ICP-MS) | plasma Gd level over time ([3]; single i.v. 50 μM Gd/kg) | Gd content in the U138 MG tumors [4, 6] | Gd content in the U138 MG tumors [4, 7] | Gd content in the U138 MG tumors [4, 8] | Gd content in the MDA-MB-231 tumor tissues [5, 6] | Gd content in the MDA-MB-231 tumor tissues [5, 7] | Gd content in the MDA-MB-231 tumor tissues [5, 8] | Gd content in the kidneys ([3]; 8 h after single i.v. 50 μM Gd/kg) | Gd content in the MDA-MB-231 tumor tissues (peak) [5] | Gd content in the kidneys ([3]; 4 h after single i.v. 50 μM Gd/kg)
O=C([O-])CN1CCN(CC(=O)[O-])CCN([C@H](CO)[C@H](O)CO)CCN(CC(=O)[O-])CC1.[Gd+3] (racemic) [Gadovist, reference compound] | 3.14 mM⁻¹ s⁻¹ | 2 h | 10.70 ± 2.10 nM/g tissue | 8.73 ± 1.37 nM/g tissue | 1.58 ± 0.72 nM/g tissue | relatively high at all time points | rapidly disappeared from circulation | 8.70 ± 1.24 nM/g tissue | 5.76 ± 0.45 nM/g tissue | 0.90 ± 0.23 nM/g tissue | 3.36 ± 0.91 nM/g tissue | 1.26 ± 0.46 nM/g tissue | no detectable Gd | – | – | –
CMYIEALDKYAC [EBP-(Gd-DO3A)3] | 7.24 mM⁻¹ s⁻¹ | – | – | 12.40 ± 1.60 nM/g tissue | 3.50 ± 1.40 nM/g tissue | – | maintained at a high level for a much longer time | – | – | – | – | – | 19.42 ± 1.76 nM/g tissue | 8.12 ± 1.28 nM/g tissue | 30.70 ± 1.90 nM/g tissue | –
CMYIEALDKYAC [EBP-Gd-DO3A] | 5.08 mM⁻¹ s⁻¹ | – | – | 10.76 ± 1.14 nM/g tissue | 2.52 ± 0.68 nM/g tissue | – | maintained at a high level for a much longer time | – | – | – | – | – | 9.95 ± 1.85 nM/g tissue | – | 17.70 ± 2.10 nM/g tissue | 8.25 ± 0.75 nM/g tissue
